Measurements as given in US20260209355.

Key:
[1] = test system: c-Myc conjugated and biotinylated human CD28 stalk region dimeric peptide (wild-type)
[2] = test system: quenched fluorogenic peptide of the human CD28 stalk region (WT)
[3] = test system: quenched fluorogenic peptide of the human CD28 stalk region with L145K

Chain of c-Myc conjugated and biotinylated human CD28 stalk region dimeric peptide (wild-type) (chain, as listed by the source): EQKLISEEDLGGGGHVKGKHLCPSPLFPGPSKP

With Recombinant human MMP-13 the “intact peptide by anti-Myc ELISA (25 and 50 ng enzyme, 5 hours)” value [1] was “the WT peptide was cleaved in a dose dependent manner”, the “fluorescence from cleavage of quenched fluorogenic peptide” value [2] was “MMP-13 also cleaves the stalk domain, but at a much lower rate and efficiency than MMP-2” and the “fluorescence from cleavage of quenched fluorogenic peptide (2.5 µM peptide, 30 ng enzyme)” value [2] was “both enzymes efficiently cleaved the WT peptide”. The “fluorescence from cleavage of quenched fluorogenic peptide, titration of protease” value [2] was “the cleavage of the peptide was dose dependent” and the “fluorescence from cleavage of quenched fluorogenic peptide (2.5 µM peptide, 30 ng enzyme)” value [3] was “both were completely incapable of cleaving the mutant peptide”.
